Here are results for four molecules from patent US20050053993A1, “Uses of an endothelial cell receptor” (priority 2002, published 2005).

Values after ≈ are worked out from the molar mass of the structure shown.

The subject of one test is HT-29. Put plainly: Tumor cell proliferation, HT-29. It is filed as cell-based. To be noted: Homo sapiens; HT-29, 72 hours. The method, then:
(§1) Cell Proliferation Assay. The effect of rK5 and rK5 peptides on endothelial cells were assessed using a proliferation assay with 1% BSA and 3 ng/ml bFGF in serum-free media. Relative cell numbers in each well of a 96 well microplate after incubation for 72 hours in the absence or presence of inhibitors were determined by using the AQueous cell proliferation assay (Promega, San Luis Obispo, Calif.). For all other cell lines tested for proliferation, minimal growth media was used (Cao, Y., Ji, R., Davidson, D., Schaller, J., Marti, D., Sohndel, S., McCance, S., O'Reilly, M., Llinas, M., and Folkman, J. Kringle domains of human angiostatin. Characterization of the anti-proliferative activity on endothelial cells. (1996) J. Biol. Chem. 271, 29461-29467). Results are presented as the percent inhibition of control cell (bFGF-induced) proliferation.

The next test concerns LNCaP. In words: Tumor cell proliferation, LNCaP. It is filed as cell-based. Conditions: Homo sapiens, 72 hours. The method, then:
as §1

In the next test the test system is B16F10. In words: Tumor cell proliferation, B16F10. Conditions: Mus musculus, B16-F10; B16F10, 72 hours. It is filed as cell-based. As to the method:
as §1

The test system of a further test is HT1080. In words: Tumor cell proliferation, HT1080. It counts as cell-based, human. To be noted: Homo sapiens, HT-1080; HT1080, 72 hours. The method, then:
as §1

A further test has as its system P388. Put plainly: Tumor cell proliferation, P388. It is filed as cell-based. Conditions: Mus musculus; P388, 72 hours. The method, then:
as §1

In another test the test system is D54. In words: Tumor cell proliferation, D54. It is filed as cell-based, human. Conditions: Homo sapiens; D54, 72 hours. The method, then:
as §1

The target in test [1] is GRP78 on the surface of human cells (EAHY, HMVEC, HT1080) (human) (UniProt P11021). Put plainly: cell-based or functional assay.
GRP78 on the surface of human cells (EAHY, HMVEC, HT1080) (human), sequence (P11021 19-654): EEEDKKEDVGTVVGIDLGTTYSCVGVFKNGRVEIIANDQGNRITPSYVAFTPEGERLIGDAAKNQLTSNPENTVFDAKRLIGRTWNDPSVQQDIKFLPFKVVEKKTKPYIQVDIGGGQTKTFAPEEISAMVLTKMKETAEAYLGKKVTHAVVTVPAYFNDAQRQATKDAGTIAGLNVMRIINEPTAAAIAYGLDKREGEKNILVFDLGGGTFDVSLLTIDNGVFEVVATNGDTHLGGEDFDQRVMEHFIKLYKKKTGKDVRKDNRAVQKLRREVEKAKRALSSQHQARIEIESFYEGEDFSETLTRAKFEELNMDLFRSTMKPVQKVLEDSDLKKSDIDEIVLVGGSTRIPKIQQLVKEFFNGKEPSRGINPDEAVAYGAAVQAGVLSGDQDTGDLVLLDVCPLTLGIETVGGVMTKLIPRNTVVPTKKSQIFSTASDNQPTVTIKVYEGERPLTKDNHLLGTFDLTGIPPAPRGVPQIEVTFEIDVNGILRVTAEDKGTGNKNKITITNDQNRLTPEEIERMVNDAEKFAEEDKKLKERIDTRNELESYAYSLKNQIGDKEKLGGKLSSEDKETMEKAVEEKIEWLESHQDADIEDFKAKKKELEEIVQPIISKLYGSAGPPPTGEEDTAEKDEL
For test [2] the target is unchanged. Put plainly: Scatchard analysis of 125I-dog K5 binding to endothelial cells.
Test [3] shares this target. Put plainly: Scatchard analysis of 125I-dog K5 binding to endothelial cells (50,000 cells per well, 1 hour room temperature).
Test [4] addresses T1, yeast-expressed recombinant human GRP78 (rGRP78) (human, UniProt P11021 19-654, limits assumed).
T1 construct: also called recombinant GRP78
In words: equilibrium dialysis of rGRP78 and 3H-K5 (FIG. 14A).

For test [5], the target named is T2, GRP78 on the surface of human cells (EAHY, HMVEC, HT1080) (human, UniProt P11021 19-654).
T2 construct: whole, on cells; also called glucose-regulated protein 78; BIP
T2 sequence (P11021 19-654): as above
Put plainly: labelled K5 binding to endothelial cells (FIG. 10A).

Test [6] deals with T2, GRP78 on the surface of human cells …. In words: cell-based or functional assay.
The target is the same in test [7]. In words: cell-based or functional assay. The source holds these as a separate data set.
Another test deals with HMVECs. Put plainly: Competition of 3HK5 binding to endothelial cells. Further details: species or system human. Conditions: 2 nM 3HK5; rK5(K82A) up to 500 nM. The method, then:
Each K5 peptide or a N-terminal antibody to GRP78 was added to HMVECs at various concentrations for 1 hour at room temperature. Cells were washed and the amount of ^3HK5 bound was counted.
Binding of human ^125IrK5 to Endothelial Cells: Tritium-labeled rK5 was added to monolayers of 50,000 HMVEC cells that were either starved or stimulated for 16 hours by 15 ng/ml bFGF and 5 ng/ml VEGF in 96 well plates. The number of counts remaining bound to the cells after extensive washing determined total amount of rK5 bound (Dudani A K, Ganz P R. Endothelial cell surface actin serves as a binding site for plasminogen, tissue plasminogen activator and lipoprotein(a). Br J Haematol. 1996 October; 95(1): 168-78). Binding of ^125IK5 (dog) to Endothelial Cells and rK5 to Recombinant GRP78: The same methods as described above for the expression and purification of human K5 were used to express dog rK5 in E. coli. ^125IK5 (dog) was added to the wells and incubated at room temperature for 1 hour. After 1 hour the cells were washed and lysed with M-Per (Pierce, Racine, Wis.) and the amount of ^125IK5 (dog) bound was counted. Scatchard plot analysis was performed using Prism (GraphPad Software, Inc., San Diego, Calif.) software. Competition binding against 5 nM ^125IK5 (dog) was tested using a monoclonal antibody against GRP78 (N-20, Santa Cruz, Calif.) or a monoclonal antibody against K5 (Green Mountain Antibodies, Burlington, Vt.). The antibodies were added to HMVECs at various concentrations for 1 hour at room temperature. Cells were washed and the amount of bound ^125IK5 (dog) bound was counted. Competition binding was also tested against 2 nM 3HK5. K5 peptides or a c-terminal antibody to GRP78 (A-129, Santa Cruz, Calif.) were added to HMVECs at various concentrations for 1 hour at room temperature. Cells were washed, lysed and the amount of ^3HK5 bound was estimated by scintillation counting.

In test [8] the target is T3, recombinant human GRP78 (rGRP78) (Homo sapiens, UniProt P11021).
T3 construct: host or cells: yeast
T3 sequence (P11021 19-654): as above
In words: Equilibrium dialysis of rGRP78 and 3HK5. It counts as binding. To be noted: competition dialysis, 2 nM GRP78 and 2 nM 3HK5; mutant up to 25-fold excess of GRP78. As to the method:
FIG. 14A is a graph showing equilibrium dialysis of recombinant GRP78 (rGRP78) and ^3HK5. ^3HK5 was added to one side of an equilibrium chamber at concentrations from 0.1 to 3 nM. 2 nM GRP78 was added to the other side of the chamber with a […] mwco filter between. ^3HK5 was allowed to equilibrate to both side of the chamber for 72 hours at room temperature. The amount of ^3HK5 on the GRP78 side of the chamber was compared to chamber with ^3HK5 alone to obtain the bound verses free rK5 distribution.
FIG. 14B is a graph showing competition binding dialysis rGRP78 and ^3HK5. Experiments were performed with 2 nM GRP78 and 2 nM ^3HK5 using rK5(K82A) mutant and unlabeled rK5 at various concentrations from 0.5 to 50 nM. The amount of ^3HK5 on both sides of the chamber was measured after 72 hours and compared to the control.
Binding of rK5 to rGRP78 was measured using equilibrium dialysis (Kariv I, Cao H, Oldenburg K R. Development of a high throughput equilibrium dialysis method. J Pharm Sci. 2001 May; 90(5):580-87). In the top well of a 96 well equilibrium dialyzer (molecular weight cut off 50K Daltons, Harvard Apparatus, Holliston, M A) 150 μl of 10 nM rGRP78 was added. In the reciprocal (bottom) chamber, 150 μl of increasing concentrations from 0.1 to 50 nM ^3HK5 was added. The chambers were shaken at room temperature for 72 hours. […]

T1 sequence (P11021 19-654 limits assumed): as the sequence (P11021 19-654) above

`COc1cccc2c1C(=O)c1c(O)c3c(c(O)c1C2=O)C[C@@](O)(C(=O)CO)C[C@@H]3O[C@H]1C[C@H](N)[C@H](O)[C@H](C)O1` [Adriamycin, reference compound]: the IC50 (usually the midpoint of a concentration-inhibition curve) in the test on HT-29 was determined as 118 ± 8 ng/mL (≈ 217 nM); in the test on LNCaP it was 410 ± 100 ng/mL (≈ 754 nM); in the test on B16F10 it was 3.2 ± 0.4 ng/mL (≈ 5.89 nM); in the test on HT1080, 2 ± 0.3 ng/mL (≈ 3.68 nM); in the test with P388, 2.6 ± 0.2 ng/mL (≈ 4.78 nM); with D54, 5 ± 0.4 ng/mL (≈ 9.2 nM). Besides, the “effect against D54 cell growth in combination with rK5” value with D54 human glioma cells (Adriamycin 50 nM in combination with rK5, 72 hours) is “very effective”. Besides, the “inhibition of D54 cell growth, Adriamycin alone” value with D54 human glioma cells (Adriamycin 50 nM, 72 hours) was “did not inhibit”.

As for “recombinant dog kringle 5, radioiodinated (^125IrK5 (dog)) (ligand)”, in [1], the IC50, inhibition of VEGF stimulated HMVEC migration was found to be 0.5 nM. In test [2], this molecule returned a binding sites per cell (binding sites per cell) of 32500. The Kd – broadly, a measure of binding affinity in units of concentration – in test [3] was determined as 0.8 nM.

B1: recombinant human kringle 5 (rK5), Kringle 5 (450-543) of human plasminogen (ligand, UniProt P00747 469-562, looked up)
chain: LLPDVETPSEEDCMFGNGKGYRGKRATTVTGTPCQDWAAQEPHRHSIFTPETNPRAGLEKNYCRNPDGDVGGPWCYTTNPRKLYDYCDVPQCAA
modifications: tritium-labelled where printed as ^3HK5
notes: range 450-543; Made in E. coli (His-tag removed by enterokinase) and in Pichia pastoris; Labelled and unlabelled rK5 are treated as one molecule; also called ^3HK5; H^3K5
For B1, the Kd in test [4] was roughly 0.7 nM; in test [5] it was 0.8 nM. Further, the “IC50, inhibition of VEGF stimulated HMVEC migration” value in test [6] turned out to be 0.2 nM. For the same molecule, the “IC50, endothelial cell migration assay (^3HK5)” value in test [7] stood at 0.2 nM. Further, the “apoptosis of HT1080 cells under hypoxic conditions” value in [7] is greater than 2 fold.

B2: rK5(K82A): mutant rK5(K82A) (protein)
chain: LLPDVETPSEEDCMFGNGKGYRGKRATTVTGTPCQDWAAQEPHRHSIFTPETNPRAGLEKNYCRNPDGDVGGPWCYTTNPRALYDYCDVPQCAA
B2: the “blocking of 3HK5 binding to endothelial cells” value with HMVECs is reported as “did not inhibit”. For the same molecule, the “blocking of 3HK5 binding to rGRP78” value in test [8] is “did not block binding”.
